Experimental data reported in patent US20120213799A1 (published 2012).

T1: soluble hFKN-SEAP (extracellular region of human fractalkine conjugated to secreted alkaline phosphatase) (UniProt P78423 25-341)
T1 chain: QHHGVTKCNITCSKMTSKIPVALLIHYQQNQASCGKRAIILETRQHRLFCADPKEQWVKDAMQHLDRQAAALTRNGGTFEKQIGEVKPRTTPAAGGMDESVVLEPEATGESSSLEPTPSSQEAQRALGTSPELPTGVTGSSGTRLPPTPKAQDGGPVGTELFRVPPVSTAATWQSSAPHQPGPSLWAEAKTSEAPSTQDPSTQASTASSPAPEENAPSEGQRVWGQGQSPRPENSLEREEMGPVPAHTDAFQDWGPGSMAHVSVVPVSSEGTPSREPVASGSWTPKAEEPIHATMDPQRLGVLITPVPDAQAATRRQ

T2: recombinant human FKN (R&D Systems, Catalog No. 362-CX/CF) (UniProt P78423 25-100)
T2 chain: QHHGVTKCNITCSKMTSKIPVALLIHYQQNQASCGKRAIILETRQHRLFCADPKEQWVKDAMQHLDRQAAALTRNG


Molecular target: T1, soluble hFKN-SEAP (extracellular region …)
Assay: BIACORE

| Kd [pM] | Binder |
| --- | --- |
| 8.84 | humanized anti-hFKN mAb H3L2-IgG2 (antibody, V domains shown) VH: QVQLVQSGAEVKKPGASVKVSCKASGYTFTNYYIHWVKQAPGQGLEWIGWIYPGDGSPKFNERFKGRTTLTADKSTNTAYMLLSSLRSDDTAVYFCATGPTDGDYFDYWGQGTTVTVSS VL: DIQMTQSPSSLSASVGDRVTITCRASGNIHNFLAWYQQKPGKAPKFLVYNEKTLADGVPSRFSGSGSGTQYTLTISSLQPEDFATYFCQQFWSTPYTFGGGTKVEIK |
| 5.34 | humanized anti-hFKN mAb H3-2L4-IgG2 (antibody, V domains shown) VH: QVQLVQSGAEVKKPGASVKVSCKASGYTFTNYYIHWVKQAPGQGLEWIGWIYPGDGSPKFNERFKGRTTLTADKSTNTAYMLLSSLRSEDTAVYFCATGPTDGDYFDYWGQGTTVTVSS VL: DIQMTQSPSSLSASVGDRVTITCRASGNIHNFLAWYQQKPGKAPKLLIYNEKTLADGVPSRFSGSGSGTDYTLTISSLQPEDFATYFCQQFWSTPYTFGGGTKVEIK |
| 5.92 | humanized anti-hFKN mAb H3-2L2-IgG2 (antibody, V domains shown) VH: QVQLVQSGAEVKKPGASVKVSCKASGYTFTNYYIHWVKQAPGQGLEWIGWIYPGDGSPKFNERFKGRTTLTADKSTNTAYMLLSSLRSEDTAVYFCATGPTDGDYFDYWGQGTTVTVSS VL: DIQMTQSPSSLSASVGDRVTITCRASGNIHNFLAWYQQKPGKAPKFLVYNEKTLADGVPSRFSGSGSGTQYTLTISSLQPEDFATYFCQQFWSTPYTFGGGTKVEIK |
| 6.43 | humanized anti-hFKN mAb H3-L4-IgG2 (antibody, V domains shown) VH: QVQLVQSGAEVKKPGASVKVSCKASGYTFTNYYIHWVKQAPGQGLEWIGWIYPGDGSPKFNERFKGRTTLTADKSTNTAYMLLSSLRSDDTAVYFCATGPTDGDYFDYWGQGTTVTVSS VL: DIQMTQSPSSLSASVGDRVTITCRASGNIHNFLAWYQQKPGKAPKLLIYNEKTLADGVPSRFSGSGSGTDYTLTISSLQPEDFATYFCQQFWSTPYTFGGGTKVEIK |
| 7.13 | mouse-human chimeric 3A5-2 mAb (antibody, V domains shown) VH: QVQLQQSGPELVKPGASVKMSCKASGYTFTNYYIHWVKQRPGQGLEWIGWIYPGDGSPKFNERFKGKTTLTADKSSNTAYMLLSSLTSEDSAIYFCATGPTDGDYFDYWGQGTTLTVSS VL: DIQMTQSPASLSASVGETVTITCRASGNIHNFLAWYQQKQGKSPQFLVYNEKTLADGVPSRFSGSGSGTQYSLKINSLQPEDFGIYFCQQFWSTPYTFGGGTKLEIK |

Molecular target: T2, recombinant human FKN (R&D Systems, …)
Assay: BIACORE

| Kd [pM] | Binder |
| --- | --- |
| 600 | mouse anti-hFKN mAb clone 3A5-2 (antibody, V domains shown) VH: QVQLQQSGPELVKPGASVKMSCKASGYTFTNYYIHWVKQRPGQGLEWIGWIYPGDGSPKFNERFKGKTTLTADKSSNTAYMLLSSLTSEDSAIYFCATGPTDGDYFDYWGQGTTLTVSS VL: DIQMTQSPASLSASVGETVTITCRASGNIHNFLAWYQQKQGKSPQFLVYNEKTLADGVPSRFSGSGSGTQYSLKINSLQPEDFGIYFCQQFWSTPYTFGGGTKLEIK |

Molecular target: cynomolgus FKN-SEAP (human;)
Assay: BIACORE

| Kd [pM] | Binder |
| --- | --- |
| 26 | HK2L4 (antibody, V domains shown) VH: QVQLVQSGAEVKKPGASVKVSCKASGYTFTNYYIHWVRQAPGQGLEWIGWIYPGDGSPKFNERFKGRTTMTADTSTSTAYMELSSLRSEDTAVYFCARGPTDGDYFDYWGQGTTVTVSS VL: DIQMTQSPSSLSASVGDRVTITCRASGNIHNFLAWYQQKPGKAPKLLIYNEKTLADGVPSRFSGSGSGTDYTLTISSLQPEDFATYFCQQFWSTPYTFGGGTKVEIK |
| 7.71 | H3-2L4 (antibody, V domains shown) VH: QVQLVQSGAEVKKPGASVKVSCKASGYTFTNYYIHWVKQAPGQGLEWIGWIYPGDGSPKFNERFKGRTTLTADKSTNTAYMLLSSLRSEDTAVYFCATGPTDGDYFDYWGQGTTVTVSS VL: DIQMTQSPSSLSASVGDRVTITCRASGNIHNFLAWYQQKPGKAPKLLIYNEKTLADGVPSRFSGSGSGTDYTLTISSLQPEDFATYFCQQFWSTPYTFGGGTKVEIK |
| 9.62 | H3L2 (antibody, V domains shown) VH: QVQLVQSGAEVKKPGASVKVSCKASGYTFTNYYIHWVKQAPGQGLEWIGWIYPGDGSPKFNERFKGRTTLTADKSTNTAYMLLSSLRSDDTAVYFCATGPTDGDYFDYWGQGTTVTVSS VL: DIQMTQSPSSLSASVGDRVTITCRASGNIHNFLAWYQQKPGKAPKFLVYNEKTLADGVPSRFSGSGSGTQYTLTISSLQPEDFATYFCQQFWSTPYTFGGGTKVEIK |
| 6.75 | H3-2L2 (antibody, V domains shown) VH: QVQLVQSGAEVKKPGASVKVSCKASGYTFTNYYIHWVKQAPGQGLEWIGWIYPGDGSPKFNERFKGRTTLTADKSTNTAYMLLSSLRSEDTAVYFCATGPTDGDYFDYWGQGTTVTVSS VL: DIQMTQSPSSLSASVGDRVTITCRASGNIHNFLAWYQQKPGKAPKFLVYNEKTLADGVPSRFSGSGSGTQYTLTISSLQPEDFATYFCQQFWSTPYTFGGGTKVEIK |
| 12 | H3L4 (antibody, V domains shown) VH: QVQLVQSGAEVKKPGASVKVSCKASGYTFTNYYIHWVKQAPGQGLEWIGWIYPGDGSPKFNERFKGRTTLTADKSTNTAYMLLSSLRSDDTAVYFCATGPTDGDYFDYWGQGTTVTVSS VL: DIQMTQSPSSLSASVGDRVTITCRASGNIHNFLAWYQQKPGKAPKLLIYNEKTLADGVPSRFSGSGSGTDYTLTISSLQPEDFATYFCQQFWSTPYTFGGGTKVEIK |
| 6.62 | chimeric (antibody, V domains shown) VH: QVQLQQSGPELVKPGASVKMSCKASGYTFTNYYIHWVKQRPGQGLEWIGWIYPGDGSPKFNERFKGKTTLTADKSSNTAYMLLSSLTSEDSAIYFCATGPTDGDYFDYWGQGTTLTVSS VL: DIQMTQSPASLSASVGETVTITCRASGNIHNFLAWYQQKQGKSPQFLVYNEKTLADGVPSRFSGSGSGTQYSLKINSLQPEDFGIYFCQQFWSTPYTFGGGTKLEIK |
